Assay results reported in publication PMC11387253, “High sensitive aptasensing chronic myeloid leukemia on circular electrode-modified by single-walled carbon nanotube”.

Columns and labels:
[1] = molecular target: T1, CD19 (Homo sapiens, UniProt P15391 20-291); test: electrochemical (current-volt, SWCN-modified IDE); 100 nM CD19; Aptamer immobilized on APTMS-SWCN surface, PEG-COOH blocked; 30 min protein incubation; washes 10 mM PBS pH 7.4; room temperature; 0-2 V in 0.1 V steps; details: protein: recombinant
[2] = molecular target: CD33 antigen (UniProt P20138 18-259); test: electrochemical (current-volt, SWCN-modified IDE); 100 nM CD33; Aptamer immobilized on APTMS-SWCN surface, PEG-COOH blocked; 30 min protein incubation; washes 10 mM PBS pH 7.4; room temperature; 0-2 V in 0.1 V steps
[3] = molecular target: T1, CD19; test: electrochemical (current-volt, SWCN-modified IDE); 10-100 nM CD19; LOD 10 nM; near saturation above 60 nM; Aptamer immobilized on APTMS-SWCN surface, PEG-COOH blocked; 30 min protein incubation; washes 10 mM PBS pH 7.4; room temperature; 0-2 V in 0.1 V steps; details: protein: recombinant

T1 sequence (P15391 20-291): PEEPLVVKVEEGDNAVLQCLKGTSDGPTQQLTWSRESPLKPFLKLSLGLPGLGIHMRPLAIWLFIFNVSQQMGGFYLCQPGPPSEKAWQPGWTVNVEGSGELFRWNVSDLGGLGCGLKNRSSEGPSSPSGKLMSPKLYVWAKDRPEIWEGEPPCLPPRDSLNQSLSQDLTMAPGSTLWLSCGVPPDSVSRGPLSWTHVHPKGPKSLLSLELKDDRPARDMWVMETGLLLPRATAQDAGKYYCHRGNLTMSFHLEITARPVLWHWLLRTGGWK
Sequence of CD33 antigen (P20138 18-259): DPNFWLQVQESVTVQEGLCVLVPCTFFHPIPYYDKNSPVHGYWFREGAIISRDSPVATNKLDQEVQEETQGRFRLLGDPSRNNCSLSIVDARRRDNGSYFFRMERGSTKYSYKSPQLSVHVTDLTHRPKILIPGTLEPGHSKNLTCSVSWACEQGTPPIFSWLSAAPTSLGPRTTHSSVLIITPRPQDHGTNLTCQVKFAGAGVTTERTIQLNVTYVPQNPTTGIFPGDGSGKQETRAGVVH

B1: complementary aptamer (ssDNA)
DNA: ACGCACACATCACACAGACAAGAGGAAAAAAACCAACGACGAGAATCCCTAAACCCGCC
modifications: 5' C6-COOH
[1]
  binding result: no binding

B2: CD19 aptamer (ssDNA)
DNA: TGCGTGTGTAGTGTGTCTGTTCTCCTTTTTTTGGTTGCTGCTCTTAGGGATTTGGGCGG
modifications: 5' C6-COOH
[2]
  binding result: no binding
[3]
  binding result: binds
